Tested on: Bacillus subtilis
Test: cleaved RNA product abundance (RNA/gDNA barcode ratio) relative to median wild-type variant (ratio to wild type); higher = more accumulation of the downstream cleavage product
Settings: cleavage site: cggR-gapA (positions -7 to +36 mutated)
Experimental: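 MPRA in B. subtilis. Mutagenized RNase Y cleavage-site regions (9% mutation rate) were inserted into a barcoded reporter mRNA (truncated aprE or tetM). Cells were grown in LB at 37°C to OD600 0.3. The cleaved RNA isoform was gel-purified and its barcodes counted; the RNA:gDNA barcode ratio was normalised to the median wild-type variant, and the median over barcodes is reported per variant. The printed sequence is the variable window only; the reporter flanks are not printed.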

[1] = experiment (reporter, strain, medium): exp 2b: truncated aprE reporter, strain BJT200
[2] = experiment (reporter, strain, medium): exp 4a: truncated aprE reporter, strain BJT201 with 2% xylose (RNase J1 expressed)

Row | Sequence | cleaved RNA product abundance [1] | cleaved RNA product abundance [2] | cleaved RNA product abundance (experiment (reporter, strain, medium): exp 6: tetM reporter, strain 168)
1 | ACAGACGAAGGAGCCGCAAAAAAGTTATTAAGGGATGAATAATCCCTGAATATAAAGATCTCTCACTTATTTAAA | 0.364 | – | –
2 | ACAGACGAAGGAGCCGCAAAAAAGTTATTAAGGGATGAATAATCCCTGAATATAAATATCTCTCACTTATTTAAA | – | 0.427 | –
3 | ACAGACGAAGGAGCCGCAAAAAAGTTATTAAGGGATGAATAATCCCTTAATATAAATATCTCTCACTTATTTAAA | – | 0.394 | –
4 | ACAGACGAAGGAGCCGCAAAAAAGTTATTAAGGGATGAATAATCCGTCAATATAAATATCTCTCACTTATTTAAA | 0.168 | 0.242 | –
5 | ACAGACGAAGGAGCCGCAAAAAAGTTATTAAGGGATGAATAATCCTTCAATATAAATATCTCTCACTTATTTAAA | 0.395 | 0.678 | –
6 | ACAGACGAAGGAGCCGCAAAAAAGTTATTAAGGGATGAATAATCTCTCAATATAAATATCTCTCACTTATTTAAA | 0.703 | 0.694 | 0.897
7 | ACAGACGAAGGAGCCGCAAAAAAGTTATTAAGGGATGAATAATTCCTCAATATAAATATCTCTCACTTATTTAAA | 0.68 | 0.814 | –
8 | ACAGACGAAGGAGCCGCAAAAAAGTTATTAAGGGATGAATAATTCCTCTATATAAATATCTCTCACTTATTTAAA | – | 0.264 | –
9 | ACAGACGAAGGAGCCGCAAAAAAGTTATTAAGGGATGAATACTCCCTCAATATAAATATCTCTCACTTATTTAAA | 0.519 | 0.58 | –
10 | ACAGACGAAGGAGCCGCAAAAAAGTTATTAAGGGATGAATAGTCCCTCAATATAAATATCTCTCACTTATTTAAA | 0.786 | 0.961 | –
11 | ACAGACGAAGGAGCCGCAAAAAAGTTATTAAGGGATGAATATTCCCTCAATATAAATATCTCTCACTTATTTAAA | 0.665 | 0.566 | –
12 | ACAGACGAAGGAGCCGCAAAAAAGTTATTAAGGGATGAATCATCCCTCAATATAAATATCTCTCACTTATTTAAA | – | 1.01 | –
13 | ACAGACGAAGGAGCCGCAAAAAAGTTATTAAGGGATGAATTATCCCTCAATATAAATATCTCTCACTTATTTAAA | – | 0.808 | –
14 | ACAGACGAAGGAGCCGCAAAAAAGTTATTAAGGGATGACTAATCCCTCAATATAAATATCTCTCACTTATTTAAA | 0.504 | 0.61 | –
15 | ACAGACGAAGGAGCCGCAAAAAAGTTATTAAGGGATGAGTAATCCCTCAATATAAATATCTCTCACTTATTTAAA | 0.481 | 0.415 | –
16 | ACAGACGAAGGAGCCGCAAAAAAGTTATTAAGGGATGCATAATCCCTCAATATAAATATCTCTCACTTATTTAAA | 0.986 | 1.02 | –
17 | ACAGACGAAGGAGCCGCAAAAAAGTTATTAAGGGATGTATAATCCCTCAATATAAATATCTCTCACTTATTTAAA | 1.06 | 1.09 | –
18 | ACAGACGAAGGAGCCGCAAAAAAGTTATTAAGGGATTAATAATCCCTCAATATAAATATCTCTCACTTATTTAAA | 1.51 | 0.881 | –
19 | ACAGACGAAGGAGCCGCAAAAAAGTTATTAAGGGCTGAATAATCCCTCAATATAAATATCTCTCACTTATTTAAA | 0.478 | 0.694 | –
20 | ACAGACGAAGGAGCCGCAAAAAAGTTATTAAGGGGTGAATAATCCCTCAATATAAATATCTCTCACTTATTTAAA | 0.759 | 0.602 | –
21 | ACAGACGAAGGAGCCGCAAAAAAGTTATTAAGGGTTGAATAATCCCTCAATATAAATATCTCTCACTTATTTAAA | 0.373 | 0.512 | –
22 | ACAGACGAAGGAGCCGCAAAAAAGTTATTAAGGTATAAATAATCCCTCAATATAAATATCTCTCACTTATTTAAA | – | 0.0805 | –
23 | ACAGACGAAGGAGCCGCAAAAAAGTTATTAAGGTATGAATAATCCATCAATATAAATATCTCTCACTTATTTAAA | – | 0.23 | –
24 | ACAGACGAAGGAGCCGCAAAAAAGTTATTAAGGTATGAATAATCCCTCAATATAAATATCTCTCACTTATTTAAA | 0.121 | 0.17 | –
25 | ACAGACGAAGGAGCCGCAAAAAAGTTATTAAGTGATGAATAATCCCTCAATATAAATATCTCTCACTTATTTAAA | 0.119 | 0.0972 | –

Row | Sequence | cleaved RNA product abundance [1] | cleaved RNA product abundance [2] | cleaved RNA product abundance (experiment (reporter, strain, medium): exp 6: tetM reporter, strain 168)
26 | ACAGACGAAGGAGCCGCAAAAAAGTTATTAATGGATGAATAATCCCTCAATATAAATATCTCTCACTTATTTAAA | 0.0715 | 0.149 | –
27 | ACAGACGAAGGAGCCGCAAAAAAGTTATTAATGGCTGAATAATCCCTCAATATAAATATCTCTCACTTATTTAAA | – | 0.0935 | –
28 | ACAGACGAAGGAGCCGCAAAAAAGTTATTACGGGATGAATAATCCCTCAATATAAATATCTCTCACTTATTTAAA | 0.329 | 0.364 | –
29 | ACAGACGAAGGAGCCGCAAAAAAGTTATTAGGGGATGAATAATCCCTCAATATAAATATCTCTCACTTATTTAAA | – | 0.608 | –
30 | ACAGACGAAGGAGCCGCAAAAAAGTTATTATGGGATGAATAATCCCTCAATATAAATATCTCTCACTTATTTAAA | 0.323 | 0.334 | –
31 | ACAGACGAAGGAGCCGCAAAAAAGTTATTCAGGGATGAATAATCCCTCAATATAAATATCTCTCACTTATTTAAA | – | 0.962 | –
32 | ACAGACGAAGGAGCCGCAAAAAAGTTATTTAGGGATGAATAATCCCTCAATATAAATATCTCTCACTTATTTAAA | – | 0.552 | –
33 | ACAGACGAAGGAGCCGCAAAAAAGTTCTTAAGGGATGAATAATCCCTCAATATAAATATCTCTCACTTATTTAAA | – | 0.218 | –
34 | ACAGACGAAGGAGCCGCAAAAAAGTTGTTAAGGGATGAATAATCCCTCAATATAAATATCTCTCACTTATTTAAA | 0.388 | 0.355 | –
35 | ACAGACGAAGGAGCCGCAAAAAAGTTTTTAAGGGATGAATAATCCCTCAATATAAATATCTCTCACTTATTTAAA | 0.281 | 0.435 | –
36 | ACAGACGAAGGAGCCGCAAAAAATTTATTAAGCGATGAATAATCCCTCAATATAAATATCTCTCACTTATTTAAA | – | 0.113 | –
37 | ACAGACGAAGGAGCCGCAAAAAATTTATTAAGGGATGAATAATCCCTCAATATAAATATCTCTCACTTATTTAAA | 1.19 | 0.66 | –
38 | ACAGACGAAGGAGCCGCAAAAACGTTATTAAGGGATGAATAATCCCTCAATATAAATATCTCTCACTTATTTAAA | – | 1.04 | –
39 | ACAGACGAAGGAGCCGCAAAAAGGTTATTAAGGGATGAATAATCCCTCAATATAAATATCTCTCACTTATTTAAA | – | 1.68 | –
40 | ACAGACGAAGGAGCCGCAAAAATGTTATTAAGGGATGAATAATCCCTCAATATAAATATCTCTCACTTATTTAAA | – | 0.983 | –
41 | ACAGACGAAGGAGCCGCAAAACAGTTATTAAGGGATGAATAATCCCTCAATATAAATATCTCTCACTTATTTAAA | 0.865 | 0.897 | –
42 | ACAGACGAAGGAGCCGCAAAAGAAGTTATTAAGGGATGAATAATCCCTCAATATAAATATCTCTCACTTATTTAA | – | 1.06 | –
43 | ACAGACGAAGGAGCCGCAAAATAGTTATTAAGGGATGAATAATCCCTCAATATAAATATCTCTCACTTATTTAAA | – | 0.703 | –
44 | ACAGACGAAGGAGCCGCAAACAAATTATTAAGGGATGAATAATCCCTCAATATAAATATCTCTCACTTATTTAAA | 0.711 | 0.696 | –
45 | ACAGACGAAGGAGCCGCAAACAACTTATTAAGGGATGAATAATCCCTCAATATAAATATCTCTCACTTATTTAAA | 0.172 | – | –
46 | ACAGACGAAGGAGCCGCAAACAAGATATTAAGGGATGAATAATCCCTCAATATAAATATCTCTCACTTATTTAAA | – | 0.827 | –
47 | ACAGACGAAGGAGCCGCAAACAAGGTATTAAGGGATGAATAATCCCTCAATATAAATATCTCTCACTTATTTAAA | – | 1.23 | –
48 | ACAGACGAAGGAGCCGCAAACAAGTAATTAAGGGATGAATAATCCCTCAATATAAATATCTCTCACTTATTTAAA | 0.177 | 0.214 | –
49 | ACAGACGAAGGAGCCGCAAACAAGTGATTAAGGGATGAATAATCCCTCAATATAAATATCTCTCACTTATTTAAA | 0.223 | 0.27 | –

Source: the supplement of paper PMC11780869
